{"source": "the nanobody polyreactivity screen of Harvey et al. (2022)", "data": [{"test": "yeast display, Sf9 membrane polyspecificity reagent, FACS + sequencing; frameworks hold sequencing errors", "method_in_brief": "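After 36–48 hours of galactose induction, yeast (Saccharomyces cerevisiae BJ5465) displaying a synthetic nanobody library were stained at 4 °C for 1 hour with 10% biotinylated, detergent-solubilized Sf9 membrane reagent. Streptavidin microbeads enriched the stained cells before FACS sorting into low and high (top ~1%) gates on anti-HA and streptavidin fluorescence. Each clone's polyreactivity label reflects its gate of origin.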", "values": [{"sequence": "QVQLVESGGGLVQAGGSLRLSCAASGLIFFYYPMGWYRQAPGKEWEMVAAIRTNYADSVKGRFTISRDNAKNTVDLQMYSLKREDTADYYCAAESSQTPTSAFDYWGQGTQVTVSS", "polyreactivity (PSR sort gate)": "low polyreactivity"}, {"sequence": "QVQLVESGGGLVQAGGSLRLSCAASGLIFGPYAMGWYRQAPGKERELDAAITSSGGSTYNADSVKGRFTISRDNAKKSVYLQMNSLKPEDTAVYYCAARGSPRYYARYNYWGQGTQVTVSS", "polyreactivity (PSR sort gate)": "low polyreactivity"}, {"sequence": "QVQLVESGGGLVQAGGSLRLSCAASGLIFGRNAMGWYRQAPGKERELVAAITSGGSTYYADSVKGRFTISRDNAKNTVYLQMNSLKPEDTAVYYCFVDYYPYDYWGQGTQVTVSS", "polyreactivity (PSR sort gate)": "low polyreactivity"}, {"sequence": "QVQLVESGGGLVQAGGSLRLSCAASGLIFGRYAMGWYRQAPGKERELVAAINRNGGSTYYADSVKGRFTISRDNAKNTVYLQMNSLKPEDTAVYYCAAQYRSSRGHYDYWGQGTQVTVSS", "polyreactivity (PSR sort gate)": "high polyreactivity"}, {"sequence": "QVQLVESGGGLVQAGGSLRLSCAASGLIFGRYAMGWYRQAPGKERELVAAISSSGVRTYYADSVKGRFTISRDNAKNTVYLQMNSLNPEDTAVYYCAAYDWYISEDYRYYYFWEYDYWGQGTQVTVSS", "polyreactivity (PSR sort gate)": "high polyreactivity"}, {"sequence": "QVQLVESGGGLVQAGGSLRLSCAASGLIFGSYVMGWYRQAPGKERELVAAISSSGGSTYYADSVKVRFTISRDNENNTFYLQMNSLKPEDTAVYYCAARYTYSADKGYYWGQGTQVTVSS", "polyreactivity (PSR sort gate)": "high polyreactivity"}, {"sequence": "QVQLVESGGGLVQAGGSLRLSCAASGLIFGVNAMGWYRQAPGKERELVAGISGSTGSTYYADSVKGRFTISRDNAKNTLYVQMNSLKPEDSAVYYCAKRSRRRGYRYDYWGQGTQVTVSS", "polyreactivity (PSR sort gate)": "high polyreactivity"}, {"sequence": "QVQLVESGGGLVQAGGSLRLSCAASGLIFGWYAMGWDRQAPGKERELVAAITRSGGSTYYADSVKGRFTISRDTAKNTVYLQMHSLKPEDTAVYSCAAEIHYSYTRGYGYWGQGTQVTVSS", "polyreactivity (PSR sort gate)": "high polyreactivity"}, {"sequence": "QVQLVESGGGLVQAGGSLRLSCAASGLIFGWYAMGWYRQAPGKERELVAAITRSGGSTYYADSVKGRFTISRDNAKNTVYLQMNSLKPEDTAVYYCAARSYVPSYDYWGQGTQVTVSS", "polyreactivity (PSR sort gate)": "high polyreactivity"}, {"sequence": "QVQLVESGGGLVQAGGSLRLSCAASGLIFGWYAMGWYRQAPGKERELVAGISGSGGITYYADSVKGRFTISRDNAKNTVYLQMNSLKPEDTAVYYCATAAASHKYGYWGQGTQVTVSS", "polyreactivity (PSR sort gate)": "low polyreactivity"}, {"sequence": "QVQLVESGGGLVQAGGSLRLSCAASGLIFGYNAMGWYRQAPGKEREFVAGISSSGVSTYYADSVKGRFTISRDNAKNTVYLQMNSLKPEDTAVYYCAADTVDLEFDYWGQGTQVTVSS", "polyreactivity (PSR sort gate)": "low polyreactivity"}, {"sequence": "QVQLVESGGGLVQAGGSLRLSCAASGLIFGYYAMGWYRQAPGKEREFVAAIDGSDGTTYYADSVKGRFTISRDNAKNTVYLQMTSQKPEDTAVYYCNADSSSYSSDLGYDYWGQGTQVTVSS", "polyreactivity (PSR sort gate)": "low polyreactivity"}, {"sequence": "QVQLVESGGGLVQAGGSLRLSCAASGLIFGYYAMGWYRQAPGKERELVARITRRGGSTYYADSVKGRFTISRDNAKNTVYLQRNSLKPEDTAVYYCAADWYSPRISREYDYWGQGTQVTVSS", "polyreactivity (PSR sort gate)": "high polyreactivity"}, {"sequence": "QVQLVESGGGLVQAGGSLRLSCAASGLIFHSYAMGWYRQAPGKERELVAAISKRGGSTYYADSVKGRFTISRDNAKNTVYLQMNSLKPEDTAVYYCAAGARGLYDYWGQGTQVTVSS", "polyreactivity (PSR sort gate)": "high polyreactivity"}, {"sequence": "QVQLVESGGGLVQAGGSLRLSCAASGLIFIFNTMGWYRQAPGKERELVAAISWSGTSTYYADSVKGRFTISRDNAKNTVYLQMHSLKPEDTAVYYCAARGYYYKYSTARRNYWGQGTQVTVSS", "polyreactivity (PSR sort gate)": "high polyreactivity"}, {"sequence": "QVQLVESGGGLVQAGGSLRLSCAASGLIFIIYTMGWYRQAPGKERELVAAITRRGGITYYADSVKGRFTISRDYAKNTVYLQMNSLKPEDTAVYYCAVVRPYNIWYDYWGQGTQVTVSS", "polyreactivity (PSR sort gate)": "low polyreactivity"}, {"sequence": "QVQLVESGGGLVQAGGSLRLSCAASGLIFKFYPMGWYRQAPGKERELVASIRGSGDNTYYADSVKGRFTISRDNAKNTVYLQMNSLKPEDTAVYYCNARASYSWHGIRGKYDYWGQGTQVTVSS", "polyreactivity (PSR sort gate)": "high polyreactivity"}, {"sequence": "QVQLVESGGGLVQAGGSLRLSCAASGLIFKGYDMGWYRQAPGKERELVAAISSGSTNYADSVKGRFTISRDNAKNTGYLQMNSLKPEDTAVYYCNADLGRATFYQRVFIERGGYWGQGTQVTVSS", "polyreactivity (PSR sort gate)": "low polyreactivity"}, {"sequence": "QVQLVESGGGLVQAGGSLRLSCAASGLIFKLNAMGWYRQAPGKARELVAAIRASTGSTYYADSVKGRFTISRDNAKNTVYLQMNSLKPEDTAVYYCAVRLRWYFFLMDYWGQGTQVTVSS", "polyreactivity (PSR sort gate)": "high polyreactivity"}, {"sequence": "QVQLVESGGGLVQAGGSLRLSCAASGLIFLGNAMGWYRQAPGKERELVAAISRSGGTTYYADSVKGRFTISRDNEKNTVYLQMNSLKPEDTAVYYCNAYNPYYRATVSSRGYGYWGQGTQVTVSS", "polyreactivity (PSR sort gate)": "high polyreactivity"}, {"sequence": "QVQLVESGGGLVQAGGSLRLSCAASGLIFLGYARGWYRQSPGKERELVASIRTGGSTSYADSVKGRFTISRDNAKNTVYLQMNSLKPEDTAVYYCAADRGRPNLPGDYWGQGTQVTVSS", "polyreactivity (PSR sort gate)": "low polyreactivity"}, {"sequence": "QVQLVESGGGLVQAGGSLRLSCAASGLIFLPYAMGWYRQAPGKERELVAAIRWSDDSTYYADSVKGRFTILRDNAKNTVYLQMNSLKPEDTAVYYCNAYVYRPSYIYNYYYEYDYWGQGTQVTVSS", "polyreactivity (PSR sort gate)": "high polyreactivity"}, {"sequence": "QVQLVESGGGLVQAGGSLRLSCAASGLIFNLYAMGWYSQAPGKEREFVATITGIGGSTYYADSVKGRFTISRDNAKNTVYLQMNSLKPQDTAVYYCAADAWFLPYNYWGQGTQVTVSS", "polyreactivity (PSR sort gate)": "low polyreactivity"}, {"sequence": "QVQLVESGGGLVQAGGSLRLSCAASGLIFPIYTMGWYRQAPGKERELVAAISSRGGSTYYADSVKGRFTISRDNAKNTVYLQMNSLKPEDTAVYYCAAQFRFSGMGYWGQGTQVTVSS", "polyreactivity (PSR sort gate)": "high polyreactivity"}, {"sequence": "QVQLVESGGGLVQAGGSLRLSCAASGLIFPVYTLGWYRPAPGKERELVAAITSSGDSTYYADSVKGRFTISRDNAKNTVYVQMNSLKPEDTAVYYCAARLVEKYGGTYSFDYWGQGTQVTVSS", "polyreactivity (PSR sort gate)": "low polyreactivity"}, {"sequence": "QVQLVESGGGLVQAGGSLRLSCAASGLIFPYYAMGWYRQAPGKERELVAAISGSGGRTYNADSVKWRFTISRDNAKNTVYLQMNSLKPEDPAVYYCAAAVLDRYTRYIWYIFDYWGQGTQVTVSS", "polyreactivity (PSR sort gate)": "high polyreactivity"}, {"sequence": "QVQLVESGGGLVQAGGSLRLSCAASGLIFPYYAMGWYRQAPGKERELVATITRSGGNTYYADSVKGRFTISRDNAKNTVYLQMNSLKPEDTAVYYCATRYAGYRSYGYWGQGTQVTVLS", "polyreactivity (PSR sort gate)": "high polyreactivity"}, {"sequence": "QVQLVESGGGLVQAGGSLRLSCAASGLIFQVYDMGWYRQAPGKERELVAAISSGSNTNYADSVKGRFTISRDNAKNTVYLQMNSLKPEDTAVYYCAASLGYGAMTPDMGYWGQVTQVTVSS", "polyreactivity (PSR sort gate)": "low polyreactivity"}, {"sequence": "QVQLVESGGGLVQAGGSLRLSCAASGLIFRFYAMGWYRQAPGKERELVAAISSRGGSTYYADSVKGRFTISRDNAKNTVYLQMNSLKPEDTAVYYCAAVFSLIASSYDYWGQGTQVTVSS", "polyreactivity (PSR sort gate)": "high polyreactivity"}, {"sequence": "QVQLVESGGGLVQAGGSLRLSCAASGLIFRPYAMGWYRQAPGKEREFVAAITWSTGSTYYADSVKGRFTISRDYAKNTVYLQMNSLKPEDTAVYYCAARYTVWRRDYNYWGQGTQVTVSS", "polyreactivity (PSR sort gate)": "high polyreactivity"}, {"sequence": "QVQLVESGGGLVQAGGSLRLSCAASGLIFRQYPMGWYRQAPGKERELVAAITGSGGRTYYADSVKGRFTISRDNAKNTVYLQMNSLKPEDTAVYYCARPNLLSGDYWGQGTQVTVSS", "polyreactivity (PSR sort gate)": "high polyreactivity"}, {"sequence": "QVQLVESGGGLVQAGGSLRLSCAASGLIFRRYAMGWYRQAPGKERELVAAITRNGGSTYYADSVKGRFTISRDNAKNTVYLQMNSLKPEDTAVYYCAADRYRRRGGLDYWGQGTQVTVSS", "polyreactivity (PSR sort gate)": "high polyreactivity"}, {"sequence": "QVQLVESGGGLVQAGGSLRLSCAASGLIFRRYAMGWYRTAPGKERELVAAISSSGSTYYADSVKGRFTISRDNAKNTVYLQMNSLKPEDTAVYYCNKVTGRNADRYGYWGQGTQVTVSS", "polyreactivity (PSR sort gate)": "high polyreactivity"}, {"sequence": "QVQLVESGGGLVQAGGSLRLSCAASGLIFRRYTMGRYRQATGKERELVAAISRGGASTSYADSVKGRFTISRDNAKNTVYLQMNSLIPEDTAVYYCAATSPRSSRTYAYDYWGQGTQVTVSS", "polyreactivity (PSR sort gate)": "high polyreactivity"}, {"sequence": "QVQLVESGGGLVQAGGSLRLSCAASGLIFRVYAMGWYRQAPGKERELVATITRGGRTYYADSVKGRFTISRDNAKNTVYLQMNSLKPEDTAVYYCAVLSVRRSYNYWGQGTQVTVSS", "polyreactivity (PSR sort gate)": "high polyreactivity"}, {"sequence": "QVQLVESGGGLVQAGGSLRLSCAASGLIFRWYAMGWYRQAPGTERELVAAISRRGGTTNYADSVKGRFTISRDNAKNTVYLQMNSLKPEDTAVYYCAADYQSVGGAEYDYWGQCTQVTVSS", "polyreactivity (PSR sort gate)": "high polyreactivity"}, {"sequence": "QVQLVESGGGLVQAGGSLRLSCAASGLIFRYNTMGWYRQAPGKERELVAAITSSGGSTYYADSVKGRFTISRDNAKNTVYLQMNSLKPEDTAVYYCAKRSFYFSDYDYWGQGTQVTVSS", "polyreactivity (PSR sort gate)": "high polyreactivity"}, {"sequence": "QVQLVESGGGLVQAGGSLRLSCAASGLIFRYYAMGWYRQAPGKERELVAAISWSGASTYYADSVKGRFTISRDNAKNTVYLQMNSLKPEDTAVYYCGRVSYYYPSEYNYWGQGTQVTVSS", "polyreactivity (PSR sort gate)": "high polyreactivity"}, {"sequence": "QVQLVESGGGLVQAGGSLRLSCAASGLIFRYYAMGWYRQAPGKERELVAVINYSGGRTYYADSVKGRFTISRDNAKNTVYLQMNSLKPEDTAVYYCAASFASKYEYWGQGTQVTVSS", "polyreactivity (PSR sort gate)": "high polyreactivity"}, {"sequence": "QVQLVESGGGLVQAGGSLRLSCAASGLIFRYYAMGWYRQAPGKERELVAVISRRGDSTYYADSVKGRFTISRDNAKNTVYLHMNSLKPEDTAVYYCAAQAFVSYFKFRGGYWGQGTQVTVSS", "polyreactivity (PSR sort gate)": "high polyreactivity"}, {"sequence": "QVQLVESGGGLVQAGGSLRLSCAASGLIFRYYTMGWYRQAPGKERELVATITKSGSSTYYADSVKGRFTISRDNAKNTVYLQMNSLKPEDTAVYYCAARAYPSYPRGVYAYYYWGQGTQVTVSS", "polyreactivity (PSR sort gate)": "high polyreactivity"}]}]}
